US20080096219A1

Molecular target: horseradish peroxidase-conjugated IgG (Wako Pure Chemical Industries, Ltd.)
Assay: protein A immobilized on a platinum microelectrode (-100 mV), incubated with 0.5 mg/ml HRP-conjugated IgG, peroxidase luminescence read by luminometer

amount of luminescence: 1.4e+10 cps
Substance: polyhistidine-fused protein A
